Experimental data published in patent publication US20090175892A1 (INSTITUT PASTEUR, published 2009).
Blank lines part the entries; values can stand above or below the binder they belong to.

Key:
[1] = molecular target: T1, HLA-B*0702 molecule on HLA-B*0702 transfected TAP deficient T2 cells (T2-B7) (human); test: MHC stabilization assay on T2-B7 cells, flow cytometry with ME.1; ratio of concentration giving 20% of maximal binding against reference peptide R10TV
T1 construct: MHC class I molecule without a defined peptide, on the surface of T2-B7 cells; its surface level was read with the anti-HLA-B7 mAb ME.1 by flow cytometry; also called HLA-B7
Method: The relative avidity of hTERT derived peptides for HLA-*B0702 was measured by using a MHC stabilization assay on HLAB0702 transfected T2 (T2-B7) cells in comparison with a reference peptide (R10TV) as described (Rohrlich et al. Int Immunol 2003; 15:765-72). Briefly, T2-B7 were incubated overnight at 2×10⁵ cells/well in 96-well plates in serum free medium AIM-V (Invitrogen Corp., Gibco), supplemented with 100 ng/ml of human β2-microglobulin, in the absence (negative control) or in the presence of either reference peptide […] or hTERT peptides at various final concentrations (100, 10, 1 and 0.1 μM). T2-B7 cells were labelled with a saturating concentration of ME.1 an anti-HLA-B7 mAb, then washed twice and finally stained with FITC-conjugated F(ab′)2 goat anti-mouse Ig before flow cytometry.

[2] = molecular target: T1, HLA-B*0702 molecule on HLA-B*0702 …; test: MHC stabilization assay on T2-B7 cells, ME-1 staining; ratio of concentration inducing 20% of HLA-B*0702 expression against reference peptide CMV265-274
Description: The protocol used has been described previously (Rohrlich et al., 2003).

Binder: MPRAPRCRA (Synthetic peptide, minimum purity 80%) [hTERT peptide p1 (MPRAPRCRA, residues 1-9)]
relative avidity [1]: 0.4 ratio

B1: hTERT peptide analogue p444* (APRRLVQLL) (peptide)
peptide: APRRLVQLL
notes: Synthetic peptide (Epytop); also called optimized p444*
RA (relative affinity) [2]: 1.4 ratio

Results, then the binder that gave them:

relative avidity [1]: 0.4 ratio
Binder: APSFRQVSCL (Synthetic peptide, minimum purity 80%) [hTERT peptide p68 (APSFRQVSCL, residues 68-77)]

relative avidity [1]: 0.3 ratio
Binder: APRCRAVRSL (Synthetic peptide, minimum purity 80%) [hTERT peptide p4 (APRCRAVRSL, residues 4-13)]

relative avidity [1]: 1.5 ratio
Binder: RPSLTGARRL (Synthetic peptide, minimum purity 80%) [hTERT peptide p351 (RPSLTGARRL, residues 351-360)]
